Target: T1, MLO-Y4 cell surface proteins (Mus musculus, UniProt Q8JZN5)
T1 construct: endogenous in cells; host or cells: MLO-Y4
T1 sequence (Q8JZN5 42-625): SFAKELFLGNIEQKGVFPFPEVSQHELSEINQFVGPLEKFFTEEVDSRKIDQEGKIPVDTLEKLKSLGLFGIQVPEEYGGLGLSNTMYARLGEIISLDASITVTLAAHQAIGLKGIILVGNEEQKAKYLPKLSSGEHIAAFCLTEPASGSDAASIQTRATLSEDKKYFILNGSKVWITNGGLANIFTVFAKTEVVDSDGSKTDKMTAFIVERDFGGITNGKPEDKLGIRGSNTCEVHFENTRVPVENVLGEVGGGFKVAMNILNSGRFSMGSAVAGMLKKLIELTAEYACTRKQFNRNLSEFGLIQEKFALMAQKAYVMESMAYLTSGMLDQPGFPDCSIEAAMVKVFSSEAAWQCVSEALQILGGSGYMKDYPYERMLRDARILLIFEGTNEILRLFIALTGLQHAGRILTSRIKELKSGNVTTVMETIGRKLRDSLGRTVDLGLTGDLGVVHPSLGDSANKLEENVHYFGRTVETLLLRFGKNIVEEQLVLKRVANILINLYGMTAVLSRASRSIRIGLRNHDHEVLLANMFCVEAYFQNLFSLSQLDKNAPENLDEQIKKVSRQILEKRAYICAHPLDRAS
Experiment: Crosslinking/co-immunoprecipitation/mass spectrometry (TMT quantitative proteomics) to identify irisin receptors
Format: binding
Settings: co-precipitated protein Acad9 (ACAD9_MOUSE)
Method in brief: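 Relative protein abundance came from 6-plex TMT MS3 quantitation on an Orbitrap Fusion Lumos, after in-gel trypsin digestion of Coomassie-stained SDS-PAGE lanes. Input was a Ni-NTA pulldown (250 mM imidazole elution) of lysates from murine MLO-Y4 cells. These cells were treated on ice with His-tagged irisin or adipsin (10 nM, 20 min) in serum-free medium, then crosslinked with 1.5 mM DTSSP for 30 min.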

TMT signal-to-noise ratio: 127.125
Substance: adipsin

Source: US20210063414A1, “METHODS FOR PREVENTING AND/OR TREATING BONE LOSS CONDITIONS BY MODULATING IRISIN” (Dana-Farber Cancer Institute, Inc., priority 2018, published 2021)
